Measured values published in patent publication US20210054095A1 (PHILOGEN S P A, published 2021).
Changes are numbered by the printed parent chain.

Tests used:
[1] = target: CAIX coated on a CM5 chip (Example 2) (human, UniProt Q16790 38-414); assay: SPR (BIAcore X100), CAIX coated CM5 chip, scFv injected as serial dilutions
Description: Affinity measurements were performed by surface plasmon resonance using BIAcore X100 instrument using a CAIX coated CM5 chip. The XE114 antibody without glycosylation motif in scFv format was injected as serial-dilutions, in a concentration range from […] to 15.7 nM. Regeneration of the chip was performed by HCl 10 mM.
The BIAcore analysis confirmed that the XE114 antibody without glycosylation motif in scFv format was capable of binding to CAIX.

[2] = target: recombinant His-tagged CAIX (amino acids 120-397 of the full-length protein; SEQ ID NO: 15) (human, UniProt Q16790 120-397); assay: SPR (Biacore 3000), His-tagged CAIX on CM5 chip, monomeric scFv injected at 660 nM
Description: Affinity measurements were performed on a Biacore 3000 instrument. 2100 RU recombinant His-tagged CAIX (SEQ ID NO: 15) were immobilized onto a CM5 chip. Peaks representing the monomeric fractions of the scFv were collected by size-exclusion chromatography on a Superdex 75 HR 10/30 column. The monomeric fraction was injected at a flow rate of 10 μl min⁻¹ over the antigen-coated chip at […] different concentrations, 660 nM, 160 nM and 80 nM. All kinetic data were evaluated using the BIAevaluation 4.1 software.

[3] = target: carbonic anhydrase IX (CAIX) as expressed on SKRC52 human renal cell carcinoma cells, SKRC52 tumour sections … (human, UniProt Q16790 38-459); assay: immunofluorescence on frozen human stomach sections, FITC-labelled hIgG1 at 2 ug/ml
Description: Frozen sections of healthy human stomach tissue were stained as follows. Briefly, FITC-labeled antibody XE114 in human IgG1 (hIgG1) format was added at a final concentration of 2 μg/ml to acetone-fixed sections.
Counterstaining for cell nuclei was performed with DAPI. Tissue sections were mounted with fluorescent mounting medium and analysed using an Axioskop2 microscope with a 10× objective.

B1: XE114 antibody without glycosylation motif in scFv format (scFv)
scFv: EVQLLESGGGLVQPGGSLRLSCAASGFTFSSYAMSWVRQAPGKGLEWVSAIDGSGGSTYYADSVKGRFTISRDNSKNTLYLQMNSLRAEDTAVYYCVKGPPVFDYWGQGTLVTVSSGGGGSGGGGSGGGGSSELTQDPAVSVALGQTVRITCQGDSLRSYYASWYQQKPGQAPVLVIYGKNNRPSGIPDRFSGSSSGNTASLTITGAQAEDEADYYCQSSKWSWDPVVFGGGTKLTVLG
notes: Expressed in CHO-S cells; also called XE114 w/o glycosylation motif
A Kd [1] of 2.71 nM and a koff [1] of 0.000305 s⁻¹ were found for B1 in this work.

B2: anti-CAIX XE114 scFv antibody (with the glycosylation motif) (scFv)
scFv: B1 scFv with Q218N
notes: also called scFv XE114; XE114 single chain Fv
A Kd [2] of 15 nM was found for B2 in this work.

B3: XE114 antibody (with the glycosylation motif) in human IgG1 (hIgG1) format (antibody, V domains shown)
VH: EVQLLESGGGLVQPGGSLRLSCAASGFTFSSYAMSWVRQAPGKGLEWVSAIDGSGGSTYYADSVKGRFTISRDNSKNTLYLQMNSLRAEDTAVYYCVKGPPVFDYWGQGTLVTVSS
VL: SSELTQDPAVSVALGQTVRITCQGDSLRSYYASWYQQKPGQAPVLVIYGKNNRPSGIPDRFSGSSSGNTASLTITGAQAEDEADYYCNSSKWSWDPVVFGGGTKLTVLG
modifications: FITC-labelled (site and chain not stated)
notes: also called FITC-labeled antibody XE114; XE114 in IgG format
B3: binds [3].
